The values below come from patent US20150368311A1 (Sanofi, published 2015).

Non-standard residues stand in square brackets, D forms with d. No end group written: not given here. Ala(4-thiazolyl) = N[C@@H](Cc1cscn1)C(=O)O; 1Nal = N[C@@H](Cc1cccc2ccccc12)C(=O)O; Phg = N[C@H](C(=O)O)c1ccccc1; Nle = CCCC[C@H](N)C(=O)O

The labels stand for the following.
B1: SEQ ID NO: 36 (peptide)
peptide: HSQGTFTSDLSKQ[Nle]ESRRAQEFIEWLLATGPESGAPPPS-OH
modifications: N-terminus assumed
SMILES: CCCC[C@H](NC(=O)[C@H](CCC(N)=O)NC(=O)[C@H](CCCCN)NC(=O)[C@H](CO)NC(=O)[C@H](CC(C)C)NC(=O)[C@H](CC(=O)O)NC(=O)[C@H](CO)NC(=O)[C@@H](NC(=O)[C@H](Cc1ccccc1)NC(=O)[C@@H](NC(=O)CNC(=O)[C@H](CCC(N)=O)NC(=O)[C@H](CO)NC(=O)[C@@H](N)Cc1c[nH]cn1)[C@@H](C)O)[C@@H](C)O)C(=O)N[C@@H](CCC(=O)O)C(=O)N[C@@H](CO)C(=O)N[C@@H](CCCNC(=N)N)C(=O)N[C@@H](CCCNC(=N)N)C(=O)N[C@@H](C)C(=O)N[C@@H](CCC(N)=O)C(=O)N[C@@H](CCC(=O)O)C(=O)N[C@@H](Cc1ccccc1)C(=O)N[C@H](C(=O)N[C@@H](CCC(=O)O)C(=O)N[C@@H](Cc1c[nH]c2ccccc12)C(=O)N[C@@H](CC(C)C)C(=O)N[C@@H](CC(C)C)C(=O)N[C@@H](C)C(=O)N[C@H](C(=O)NCC(=O)N1CCC[C@H]1C(=O)N[C@@H](CCC(=O)O)C(=O)N[C@@H](CO)C(=O)NCC(=O)N[C@@H](C)C(=O)N1CCC[C@H]1C(=O)N1CCC[C@H]1C(=O)N1CCC[C@H]1C(=O)N[C@@H](CO)C(=O)O)[C@@H](C)O)[C@@H](C)CC
B2: SEQ ID NO: 6 (peptide)
peptide: [Ala(4-thiazolyl)]SQGTFTSDYSKQLESRRAQEFIEWLLATGPESGAPPPS-OH
modifications: N-terminus assumed
SMILES: CC[C@H](C)[C@H](NC(=O)[C@H](Cc1ccccc1)NC(=O)[C@H](CCC(=O)O)NC(=O)[C@H](CCC(N)=O)NC(=O)[C@H](C)NC(=O)[C@H](CCCNC(=N)N)NC(=O)[C@H](CCCNC(=N)N)NC(=O)[C@H](CO)NC(=O)[C@H](CCC(=O)O)NC(=O)[C@H](CC(C)C)NC(=O)[C@H](CCC(N)=O)NC(=O)[C@H](CCCCN)NC(=O)[C@H](CO)NC(=O)[C@H](Cc1ccc(O)cc1)NC(=O)[C@H](CC(=O)O)NC(=O)[C@H](CO)NC(=O)[C@@H](NC(=O)[C@H](Cc1ccccc1)NC(=O)[C@@H](NC(=O)CNC(=O)[C@H](CCC(N)=O)NC(=O)[C@H](CO)NC(=O)[C@@H](N)Cc1cscn1)[C@@H](C)O)[C@@H](C)O)C(=O)N[C@@H](CCC(=O)O)C(=O)N[C@@H](Cc1c[nH]c2ccccc12)C(=O)N[C@@H](CC(C)C)C(=O)N[C@@H](CC(C)C)C(=O)N[C@@H](C)C(=O)N[C@H](C(=O)NCC(=O)N1CCC[C@H]1C(=O)N[C@@H](CCC(=O)O)C(=O)N[C@@H](CO)C(=O)NCC(=O)N[C@@H](C)C(=O)N1CCC[C@H]1C(=O)N1CCC[C@H]1C(=O)N1CCC[C@H]1C(=O)N[C@@H](CO)C(=O)O)[C@@H](C)O
B3: SEQ ID NO: 32 (peptide)
peptide: HSQGTFTSD[Phg]SKQLESRRAQEFIEWLLATGPESGAPPPS-OH
modifications: N-terminus assumed
SMILES: CC[C@H](C)[C@H](NC(=O)[C@H](Cc1ccccc1)NC(=O)[C@H](CCC(=O)O)NC(=O)[C@H](CCC(N)=O)NC(=O)[C@H](C)NC(=O)[C@H](CCCNC(=N)N)NC(=O)[C@H](CCCNC(=N)N)NC(=O)[C@H](CO)NC(=O)[C@H](CCC(=O)O)NC(=O)[C@H](CC(C)C)NC(=O)[C@H](CCC(N)=O)NC(=O)[C@H](CCCCN)NC(=O)[C@H](CO)NC(=O)[C@@H](NC(=O)[C@H](CC(=O)O)NC(=O)[C@H](CO)NC(=O)[C@@H](NC(=O)[C@H](Cc1ccccc1)NC(=O)[C@@H](NC(=O)CNC(=O)[C@H](CCC(N)=O)NC(=O)[C@H](CO)NC(=O)[C@@H](N)Cc1c[nH]cn1)[C@@H](C)O)[C@@H](C)O)c1ccccc1)C(=O)N[C@@H](CCC(=O)O)C(=O)N[C@@H](Cc1c[nH]c2ccccc12)C(=O)N[C@@H](CC(C)C)C(=O)N[C@@H](CC(C)C)C(=O)N[C@@H](C)C(=O)N[C@H](C(=O)NCC(=O)N1CCC[C@H]1C(=O)N[C@@H](CCC(=O)O)C(=O)N[C@@H](CO)C(=O)NCC(=O)N[C@@H](C)C(=O)N1CCC[C@H]1C(=O)N1CCC[C@H]1C(=O)N1CCC[C@H]1C(=O)N[C@@H](CO)C(=O)O)[C@@H](C)O
B4: SEQ ID NO: 5 (peptide)
peptide: [Ala(4-thiazolyl)]SQGTFTSDYSKQLESRRAQEFIEWLLAGGPESGAPPPS-OH
modifications: N-terminus assumed
SMILES: CC[C@H](C)[C@H](NC(=O)[C@H](Cc1ccccc1)NC(=O)[C@H](CCC(=O)O)NC(=O)[C@H](CCC(N)=O)NC(=O)[C@H](C)NC(=O)[C@H](CCCNC(=N)N)NC(=O)[C@H](CCCNC(=N)N)NC(=O)[C@H](CO)NC(=O)[C@H](CCC(=O)O)NC(=O)[C@H](CC(C)C)NC(=O)[C@H](CCC(N)=O)NC(=O)[C@H](CCCCN)NC(=O)[C@H](CO)NC(=O)[C@H](Cc1ccc(O)cc1)NC(=O)[C@H](CC(=O)O)NC(=O)[C@H](CO)NC(=O)[C@@H](NC(=O)[C@H](Cc1ccccc1)NC(=O)[C@@H](NC(=O)CNC(=O)[C@H](CCC(N)=O)NC(=O)[C@H](CO)NC(=O)[C@@H](N)Cc1cscn1)[C@@H](C)O)[C@@H](C)O)C(=O)N[C@@H](CCC(=O)O)C(=O)N[C@@H](Cc1c[nH]c2ccccc12)C(=O)N[C@@H](CC(C)C)C(=O)N[C@@H](CC(C)C)C(=O)N[C@@H](C)C(=O)NCC(=O)NCC(=O)N1CCC[C@H]1C(=O)N[C@@H](CCC(=O)O)C(=O)N[C@@H](CO)C(=O)NCC(=O)N[C@@H](C)C(=O)N1CCC[C@H]1C(=O)N1CCC[C@H]1C(=O)N1CCC[C@H]1C(=O)N[C@@H](CO)C(=O)O
B5: SEQ ID NO: 33 (peptide)
peptide: HSQGTFTSD[1Nal]SKQLESRRAQEFIEWLLATGPESGAPPPS-OH
modifications: N-terminus assumed
SMILES: CC[C@H](C)[C@H](NC(=O)[C@H](Cc1ccccc1)NC(=O)[C@H](CCC(=O)O)NC(=O)[C@H](CCC(N)=O)NC(=O)[C@H](C)NC(=O)[C@H](CCCNC(=N)N)NC(=O)[C@H](CCCNC(=N)N)NC(=O)[C@H](CO)NC(=O)[C@H](CCC(=O)O)NC(=O)[C@H](CC(C)C)NC(=O)[C@H](CCC(N)=O)NC(=O)[C@H](CCCCN)NC(=O)[C@H](CO)NC(=O)[C@H](Cc1cccc2ccccc12)NC(=O)[C@H](CC(=O)O)NC(=O)[C@H](CO)NC(=O)[C@@H](NC(=O)[C@H](Cc1ccccc1)NC(=O)[C@@H](NC(=O)CNC(=O)[C@H](CCC(N)=O)NC(=O)[C@H](CO)NC(=O)[C@@H](N)Cc1c[nH]cn1)[C@@H](C)O)[C@@H](C)O)C(=O)N[C@@H](CCC(=O)O)C(=O)N[C@@H](Cc1c[nH]c2ccccc12)C(=O)N[C@@H](CC(C)C)C(=O)N[C@@H](CC(C)C)C(=O)N[C@@H](C)C(=O)N[C@H](C(=O)NCC(=O)N1CCC[C@H]1C(=O)N[C@@H](CCC(=O)O)C(=O)N[C@@H](CO)C(=O)NCC(=O)N[C@@H](C)C(=O)N1CCC[C@H]1C(=O)N1CCC[C@H]1C(=O)N1CCC[C@H]1C(=O)N[C@@H](CO)C(=O)O)[C@@H](C)O

T2 sequence (P47871 26-477): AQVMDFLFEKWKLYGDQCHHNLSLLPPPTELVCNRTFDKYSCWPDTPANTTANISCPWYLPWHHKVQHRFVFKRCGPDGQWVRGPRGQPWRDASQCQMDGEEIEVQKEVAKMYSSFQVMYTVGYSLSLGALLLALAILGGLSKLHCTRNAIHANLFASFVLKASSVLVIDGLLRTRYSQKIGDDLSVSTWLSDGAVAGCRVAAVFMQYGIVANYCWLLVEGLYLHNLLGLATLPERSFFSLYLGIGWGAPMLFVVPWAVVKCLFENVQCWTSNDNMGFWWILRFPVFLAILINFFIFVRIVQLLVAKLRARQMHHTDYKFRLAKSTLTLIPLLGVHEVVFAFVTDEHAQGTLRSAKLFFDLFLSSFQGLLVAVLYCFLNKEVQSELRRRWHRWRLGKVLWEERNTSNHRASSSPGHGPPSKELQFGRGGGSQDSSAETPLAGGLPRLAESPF

The target in the first assay is T1, human GLP-1 receptor (human, UniProt P43220 24-463). The assay can be described thus: cell-based or functional assay.
For the molecule B1, the “EC50 hGLP-1R, cAMP formation” value came out at 358 pM.
For HSQGTFTSDLSKQLESRRAQEFIEWLLATGPESGAPPPS-OH [SEQ ID NO: 34], the “EC50 hGLP-1R, cAMP formation” value amounted to 363 pM.
With B2, the “EC50 hGLP-1R, cAMP formation” value turned out to be 9300 pM.
On to HSQGTFTSDVSKQLESRRAQEFIEWLLATGPESGAPPPS-OH [SEQ ID NO: 30], for which the “EC50 hGLP-1R, cAMP formation” value is 1180 pM.
HSQGTFTSDLSKQLESRRAQEFIEWLLAGGPESGAPPPS-OH [SEQ ID NO: 27]: the “EC50 hGLP-1R, cAMP formation” value stood at 80.8 pM.
Consider HSQGTFTSDYSKQLESRRAQEFIEWLLAGGPESGAPPPS-OH [SEQ ID NO: 28], for which the “EC50 hGLP-1R, cAMP formation” value came out at 52.4 pM.
On the same count and under the same terms, in the case of B3 it was 18700 pM.
The same measure, in the same setting: in the case of B4 it was 2190 pM.
On the same count and under the same terms, in the case of HSQGTFTSDYSKQLESRRAQEFIEWLLATGPESGAPPPS-OH [SEQ ID NO: 29] it was 145 pM; in that of B5, 159 pM; in that of HSQGTFTSDLSKQLESRRAQDFIEWLLATGPESGAPPPS-OH [SEQ ID NO: 35], 934 pM.
For the molecule HSQGTFTSDISKQLESRRAQEFIEWLLATGPESGAPPPS-OH [SEQ ID NO: 31], the “EC50 hGLP-1R, cAMP formation” value worked out at 941 pM.

Another assay concerns the target T2, human glucagon receptor (human, UniProt P47871 26-477). The assay can be described thus: cell-based or functional assay.
Take B1: the “EC50 hGlucagon-R, cAMP formation” value stood at 1.4 pM.
Consider HSQGTFTSDLSKQLESRRAQEFIEWLLATGPESGAPPPS-OH [SEQ ID NO: 34], for which the “EC50 hGlucagon-R, cAMP formation” value was found to be 1.4 pM.
Still for that read-out and setting: next, B2: 0.5 pM.
In the case of HSQGTFTSDVSKQLESRRAQEFIEWLLATGPESGAPPPS-OH [SEQ ID NO: 30], the “EC50 hGlucagon-R, cAMP formation” value amounted to 6.5 pM.
Regarding HSQGTFTSDLSKQLESRRAQEFIEWLLAGGPESGAPPPS-OH [SEQ ID NO: 27], the “EC50 hGlucagon-R, cAMP formation” value came out at 1.3 pM.
In the case of HSQGTFTSDYSKQLESRRAQEFIEWLLAGGPESGAPPPS-OH [SEQ ID NO: 28], the “EC50 hGlucagon-R, cAMP formation” value was 1 pM.
Same read-out and setting: next, B3: 12 pM.
On to B4, for which the “EC50 hGlucagon-R, cAMP formation” value amounted to 0.6 pM.
As for HSQGTFTSDYSKQLESRRAQEFIEWLLATGPESGAPPPS-OH [SEQ ID NO: 29], the “EC50 hGlucagon-R, cAMP formation” value worked out at 0.9 pM.
In the case of B5, the “EC50 hGlucagon-R, cAMP formation” value is 1.1 pM.
Same read-out and setting: next, HSQGTFTSDLSKQLESRRAQDFIEWLLATGPESGAPPPS-OH [SEQ ID NO: 35]: 7.1 pM.
Consider HSQGTFTSDISKQLESRRAQEFIEWLLATGPESGAPPPS-OH [SEQ ID NO: 31], for which the “EC50 hGlucagon-R, cAMP formation” value was 4.1 pM.

Another assay concerns the target T1, human GLP-1 receptor. Briefly: cell-based or functional assay. This is another data set of the same source.
Regarding B2, the “EC50 hGLP-1 R [pM], cAMP formation” value came out at 9300 pM.
The same measure, in the same setting: in the case of B4 it was 2190 pM.

The target in a further assay is T2, human glucagon receptor. Briefly: cell-based or functional assay. This is another data set of the same source.
With B2, the “EC50 hGLUC R [pM], cAMP formation” value was 0.5 pM.
Same read-out and setting: in the case of B4 it was 0.6 pM.
